Data taken from patent US20240392024A1 (SHANGHAI CELGEN BIO PHARMACEUTICAL, published 2024).
Substitutions are numbered along the chain they refer to.

T1: recombinant mouse TNFR2 (mTNFR2) (Sino Biological, 50128-M08H) (mouse, UniProt P25119 23-258)
T1 sequence (looked up): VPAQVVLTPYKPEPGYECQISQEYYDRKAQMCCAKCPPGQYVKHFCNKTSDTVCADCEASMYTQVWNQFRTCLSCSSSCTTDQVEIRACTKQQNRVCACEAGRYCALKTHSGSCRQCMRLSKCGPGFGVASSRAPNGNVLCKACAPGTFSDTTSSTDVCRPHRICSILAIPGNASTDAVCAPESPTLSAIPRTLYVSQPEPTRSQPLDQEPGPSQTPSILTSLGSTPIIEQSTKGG

T2: recombinant cynomolgus monkey TNFR2 (Cyno. TNFR2) (Sino Biological, 90102-C021) (cynomolgus monkey, UniProt A0A2K5VET2 132-366)
T2 sequence: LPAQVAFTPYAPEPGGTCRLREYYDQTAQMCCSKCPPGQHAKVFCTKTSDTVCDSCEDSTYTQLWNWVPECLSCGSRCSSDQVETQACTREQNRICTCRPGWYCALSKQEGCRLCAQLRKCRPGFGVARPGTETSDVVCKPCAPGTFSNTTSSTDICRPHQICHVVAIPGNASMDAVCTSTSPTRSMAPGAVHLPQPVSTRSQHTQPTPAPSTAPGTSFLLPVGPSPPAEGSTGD

T3: human TNFR2 on the cell membrane (human, UniProt P20333 23-461)
T3 construct: whole, on cells; One molecule for all cell formats; also called TNFR2-CHO cells; CHO-TNFR2
T3 sequence (looked up): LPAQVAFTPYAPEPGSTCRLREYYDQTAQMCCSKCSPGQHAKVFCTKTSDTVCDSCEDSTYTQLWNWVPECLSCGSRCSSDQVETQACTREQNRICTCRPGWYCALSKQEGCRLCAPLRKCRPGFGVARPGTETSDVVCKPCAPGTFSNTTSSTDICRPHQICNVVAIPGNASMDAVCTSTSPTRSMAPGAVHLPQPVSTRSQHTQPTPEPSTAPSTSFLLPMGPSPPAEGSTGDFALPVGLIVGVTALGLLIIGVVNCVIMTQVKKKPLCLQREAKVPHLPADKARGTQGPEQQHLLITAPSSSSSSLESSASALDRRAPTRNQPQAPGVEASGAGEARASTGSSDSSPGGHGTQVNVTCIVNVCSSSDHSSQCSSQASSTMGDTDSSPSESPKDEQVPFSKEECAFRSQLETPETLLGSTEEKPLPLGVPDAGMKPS

T4: recombinant human TNFR2 antigen (Kangdai, batch number A100114U) (human, UniProt P20333 23-257)
T4 construct: also called hTNFR2; TNFR2-FC (Shanghai Saijin Biopharmaceutical Co., Ltd., Qiangke, catalog number A100114U); not shown: Fc part of the bought TNFR2-FC
T4 sequence (looked up): T2 sequence with G16S, P36S, Q117P, H164N, A210E, G216S, V223M

B1: anti-human TNFR2 mouse monoclonal antibody 7F2 (antibody, V domains shown)
VH: QVTLKESGPGILQPSQTLSLTCSFSGFSLNTFGLGVGWIRQPSGKGLEWLTHIWWNDDKYYNPALKSRLTISRDTSENLVFLKIANVDTADTATYYCARIEGLRRFDYWGQGTTLTVSS
VL: DIQMTQSPSSLSASLGGKVTITCKTSQDINKFIAWYQHKPGKGPRLLIHYTSTLQPGIPSRFSGSGSGRDYSFSISDLEPEDIATYYCLQYANLWAFGGGTKLEIK
B2: anti-human TNFR2 mouse monoclonal antibody 27F6 (antibody, V domains shown)
VH: EVQLQQSGTVLARPGASVKMSCKTSGYTFTSYWMHWVKQRPGQGLEWIGTIYPGNSDTSYNQKFKGKAKLTAVTSASTAYMELNSLTNEDSAVFYCTRENLLLRSYFFDYWGQGTTLTVSS
VL: DIVMTQSPASLAVSLGQRATISCKASQSVDYDGDSYLNWYQQKPGQPPKLLIYAASNLPSGIPARFSGSGSGTDFTLNIHPVEEEDAATYYCQQSNEDPRTFGGGTKLEIK
B3: anti-human TNFR2 mouse monoclonal antibody 29A1 (antibody, V domains shown)
VH: QVQLQQSGAEVVRPGASVTLSCKASGYTFSDYEMHWVKQTPVHGLEWIGAIDPETGDTAYNQKFKDKARVTADKSSSTAYMELRSLTSEDSAVYYCTRDIHYYGSSLSYFDYWGQGTTLTVSS
VL: DIVMTQSQKFMSTSVGDRVSVTCKASQNVGTNVAWYQQKPGQSPKVMIYSASYRYSGAPDRFTGSGSGTDFTLTVNNVQSEDLAEYFCQQYKTYPYTFGGGTKLEIE
B4: anti-human TNFR2 mouse monoclonal antibody 12E12 (antibody, V domains shown)
VH: EVQLQQSGAELVKPGASVKLSCTVSGFNIKDFYIHWVKQRPEQGLEWIGRVDPEDGNTEYAPNFQDRATMTTDTSSNTAYLQLSSLTSVDTAVYYCSTWDGFSYFDYWGLGTTLTVSS
VL: QAVVTQESALTTSPGETVTLTCRSSTGPVTTNNYANWVQEKPDHLFTGLIGGTNDRAPGVPARFSGSLIGDKTALTITGTQTEDEAVYFCALWYRNHWVFGGGTKLTVL
B5: human-mouse chimeric TNFR2 monoclonal antibody 16D2-hFc (antibody, V domains shown)
VH: EVQLQQSEPELVKPGASVKIPCKASGYTFTDYNMDWVKQSHGKSLEWIGDINPNNGVTIYNQKFKGKATLTVDKSSSTAYMELRSLTSEDTAVYYCVILEYFDYWGQGTTLTVSS
VL: DIVMTQSTSSMSVSLGDTVSITCHASQGISSNIGWLQQKPGKSFKGLIYHGTKLEDGVPSRFSGSGSGADYSLTISSLESEDFADYYCVQYAQFPRTFGGGTKLEIK
notes: Mouse V regions of clone 16D2 with human constant regions

These binders were tested against T1, recombinant mouse TNFR2 (mTNFR2) (Sino …) (assay: ELISA, coated mouse TNFR2).
Experimental: (§1) After TMB development, the detection was performed using microplate reader: dual wavelength 450 nm/655 nm detection, and results were calculated by OD₄₅₀-OD₆₅₅.
(§2) Using the same method as above, the TNFR2 antigens of cynomolgus monkey and mouse (Sino Biological, 90102-C021 and 50128-M08H) were coated separately. The anti-human TNFR2 mouse monoclonal antibodies to be tested were gradient diluted, then added with the anti-mouse Fab segment secondary antibody (Jackson Immuno Research, 515-035-072), and TMB development was performed. ELISA was used to detect the binding of 8 strains of mouse monoclonal antibodies to recombinant mouse TNFR2 (mTNFR2) and cynomolgus monkey TNFR2 (Cyno. TNFR2).

binding result | Binder
no binding | B1
no binding | B2
no binding | B3
no binding | B4

These binders were tested against T2, recombinant cynomolgus monkey TNFR2 … (assay: ELISA, coated cynomolgus TNFR2).
Experimental: as §1, §2

EC50 [µg/mL] | Binder
0.119 | B1
0.0756 | B2
0.0562 | B3
0.139 | B4

The binders below were run against T3, human TNFR2 on the cell membrane (assay: flow cytometry, TNFR2-CHO cells).
Experimental: (§3) Purified anti-human TNFR2 mouse monoclonal antibodies were co-incubated with TNFR2 overexpressing CHO cell lines (obtained routinely as follows: PCDNA3.4-TNFR2 was transfected into CHO cells, and stable high expression TNFR2 cell lines were obtained through drug screening and monoclonal sorting), and then stained. The antibody binding intensity was analyzed by flow cytometry. The specific steps are as follows: TNFR2-CHO cells were counted, centrifuged, resuspended, then added to a 96-deep well plate, and the supernatant was discarded. The anti-TNFR2 antibodies to be tested were gradient diluted, added to the 96-deep well plate. […] The samples were detected using Beckman CytoFLEX.

EC50 [µg/mL] | Binder
0.364 | B1
0.187 | B2
0.178 | B3
0.147 | B4

These binders were tested against T4, recombinant human TNFR2 antigen … (assay: ELISA, coated recombinant human TNFR2).
Experimental: as §1

EC50 [µg/mL] | Binder
0.0623 | B1
0.0366 | B2
0.0255 | B3
0.0707 | B4

These binders were tested against T3, human TNFR2 on the cell membrane (assay: flow cytometry on TNFR2-CHO cells).
Experimental: as §3

EC50 [nM] | Binder
2.44 | B1
1.25 | B2
1.19 | B3
0.986 | B4

The binders below were run against T3, human TNFR2 on the cell membrane (assay: flow cytometry on human PBMC, CD3+ T cells).
Experimental: Purified anti-human TNFR2 human-mouse chimeric monoclonal antibodies were co-cultured with PBMC cells (Oricells) and stained. The binding of the antibody was analyzed by flow cytometry. The specific steps are as follows: PBMC cells (Oricells) were counted, centrifuged, resuspended, then added to a 96-deep well plate, and the supernatant was discarded. Diluted anti-TNFR2 monoclonal antibodies were added.

percent of cells in the upper right quadrant (Q1-UR, CD3+ and anti-human IgG Fc+) [%] | Binder
9.66 | B5

These binders were tested against T4, recombinant human TNFR2 antigen … (assay: ELISA, plate coated with recombinant human TNFR2 antigen).
Experimental: as §1

EC50 [nM] | Binder
0.418 | B1
0.245 | B2
0.171 | B3
0.474 | B4

Each binder was assayed against T2, recombinant cynomolgus monkey TNFR2 … (assay: ELISA, plate coated with recombinant cynomolgus monkey TNFR2).
Experimental: as §1, §2

EC50 [nM] | Binder
0.795 | B1
0.506 | B2
0.377 | B3
0.933 | B4
